Here are results for 24 molecules from patent publication US20130012436A1 (Bristol-Myers Squibb, published 2013).

The target of test [1] is T1, human IL-23 (human, UniProt Q9NPF7 20-189; P29460 23-328).
T1 sequence (looked up) 1: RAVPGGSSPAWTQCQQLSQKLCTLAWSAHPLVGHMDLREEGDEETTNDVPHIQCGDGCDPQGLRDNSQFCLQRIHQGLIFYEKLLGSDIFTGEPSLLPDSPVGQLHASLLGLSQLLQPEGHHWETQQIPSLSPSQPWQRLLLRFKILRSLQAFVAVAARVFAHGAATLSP
T1 sequence (looked up) 2: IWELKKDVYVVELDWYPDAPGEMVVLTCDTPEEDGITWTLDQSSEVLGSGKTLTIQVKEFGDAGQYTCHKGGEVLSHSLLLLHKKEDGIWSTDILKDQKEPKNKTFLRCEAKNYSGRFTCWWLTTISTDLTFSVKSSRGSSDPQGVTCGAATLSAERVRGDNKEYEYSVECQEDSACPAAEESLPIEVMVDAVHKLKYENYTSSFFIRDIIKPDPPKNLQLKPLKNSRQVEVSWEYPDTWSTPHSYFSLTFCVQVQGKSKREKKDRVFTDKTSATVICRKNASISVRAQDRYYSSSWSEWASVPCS
Kind of test: cell-based or functional assay.

Test [2] has as its target T1, human IL-23. Kind of test: SPR, Adnectin captured by anti-His mAb, IL-23 injected. The protocol: All surface plasmon experiments were conducted in HBS-EP (10 mM Hepes 150 mM NaCl 3 mM EDTA 0.05% Surfactant P20) at 25° C. IL-23 was injected over anti-His mAb captured Adnectins for 2 minutes followed by a 10 minute dissociation phase. Evaluation of the binding specificity was completed using Biacore T100 evaluation software. Additional detailed methods are described in Example 4.
In general terms: In SPR one partner is held on a chip, and binding of the other changes the refractive index at the surface.

In general, kon refers to the rate constant with which the complex forms. By Kd is commonly meant a measure of binding affinity in units of concentration. The koff is the first-order rate constant of dissociation. Higher therefore signals a short-lived complex.

B1: 1434A08 (designed binder)
chain: MGVSDVPRDLEVVAATPTSLLISWGHYPMHVRYYRITYGETGGNSPVQEFTVPHRTHTATISGLKPGVDYTITVYAVTYYNEADYSQIPISINYRTEIDKPSQHHHHHH
Turning to B1, the “Kit 225 pSTAT3 IC50 (nM)” value in test [1] was 4.9 nM.

B2: 1438D01 (designed binder)
chain: MGVSDVPRDLEVVAATPTSLLISWGHYPMHVRYYRITYGETGGNSPVQEFTVPNRAHTATISGLKPGVDYTITVYAVTYYNEADYSQIPISINYRTEIDKPSQHHHHHH
With B2, the “Kit 225 pSTAT3 IC50 (nM)” value in test [1] came out at 11.4 nM.

B3: 1572H08 (designed binder)
chain: MGVSDVPRDLEVVAATPTSLLISWGHYPLHVRYYRITYGETGGNSPVQEFTVPSRKYTATISGLKPGVDYTITVYAVTYYNEADYSQIPISINYRTEIDKPSQHHHHHH
notes: captured by anti-His mAb
As to B3, the kon in test [2] was determined as 57300 M⁻¹ s⁻¹. Further, the “Kit 225 pSTAT3 IC50 (nM)” value in test [1] stood at 2.8 nM.

B4: 1438E05 (designed binder)
chain: MGVSDVPRDLEVVAATPTSLLISWGHYPMHVRYYRITYGETGGNSPVQEFTVPSNVHTATISGLKPGVDYTITVYAVTYYNEADYSQIPISINYRTEIDKPSQHHHHHH
With B4, the “Kit 225 pSTAT3 IC50 (nM)” value in test [1] came out at 39.6 nM.

B5: 1438B02 (designed binder)
chain: MGVSDVPRDLEVVAATPTSLLISWGHYPMHVRYYRITYGETGGNSPVQEFTVPRKTYTATISGLKPGVDYTITVYAVTYYNEADYSQIPISINYRTEIDKPSQHHHHHH
In the case of B5, the “Kit 225 pSTAT3 IC50 (nM)” value in test [1] is 8.6 nM.

B6: 1438A09 (designed binder)
chain: MGVSDVPRDLEVVAATPTSLLISWGHYPMHVRYYRITYGETGGNSPVQEFTVPRSRYTATISGLKPGVDYTITVYAVTYYNEADYSQIPISINYRTEIDKPSQHHHHHH
For B6, in test [1], the “Kit 225 pSTAT3 IC50 (nM)” value was found to be 10.8 nM.

B7: 1486G03 (designed binder)
chain: MGVSDVPRDLEVVAATPTSLLISWGHYPMHVRYYRITYGETGGNSPVQEFTVPSRYYTATISGLKPGVDYTITVYAVTYYNEADYSQIPISINYRTEIDKPSQHHHHHH
notes: captured by anti-His mAb
For the molecule B7, in test [2], binding was put at a Kd of 4.9 nM, the koff is 0.000425 s⁻¹ and the kon came to 86200 M⁻¹ s⁻¹. The “Kit 225 pSTAT3 IC50 (nM)” value in test [1] was found to be 3 nM.

B8: 1490C07 (designed binder)
chain: MGVSDVPRDLEVVAATPTSLLISWGHYPLHVRYYRITYGETGGNSPVQEFTVPSNRYTATISGLKPGVDYTITVYAVTYYNEADYSQIPISINYRTEIDKPSQHHHHHH
notes: captured by anti-His mAb
In test [2], B8 had a Kd of 4.5 nM, a koff of 0.000426 s⁻¹ and a kon of 95600 M⁻¹ s⁻¹. Besides, the “Kit 225 pSTAT3 IC50 (nM)” value in test [1] was 5.6 nM.

B9: 1490G02 (designed binder)
chain: MGVSDVPRDLEVVAATPTSLLISWGHYPMHVRYYRITYGETGGNSPVQEFTVPPRYHTATISGLKPGVDYTITVYAVTYYMEEKYAVIPISINYRTEIDKPSQHHHHHH
notes: captured by anti-His mAb
In test [2], B9 came in with a Kd of 1.7 nM, a koff of 0.000332 s⁻¹ and a kon of 197000 M⁻¹ s⁻¹. For the same molecule, the “Kit 225 pSTAT3 IC50 (nM)” value in test [1] is 0.4 nM.

B10: 1487C03 (designed binder)
chain: MGVSDVPRDLEVVAATPTSLLISWGHYPLHIRYYRITYGETGGNSPVQEFTVPKQVYTATISGLKPGVDYTITVYAVTYYNEADYSQIPISINYRTEIDKPSQHHHHHH
notes: captured by anti-His mAb
B10: in test [2], the Kd came to 2.4 nM, the koff came to 0.000382 s⁻¹ and the kon is 161000 M⁻¹ s⁻¹. Also, the “Kit 225 pSTAT3 IC50 (nM)” value in test [1] was 3.7 nM.

B11: 1487H04 (designed binder)
chain: MGVSDVPRDLEVVAATPTSLLISWGHYPMHVRYYRITYGETGGNSPVQEFTVPARQYTATISGLKPGVDYTITVYAVTYYQEYEYRYIPISINYRTEIDKPSQHHHHHH
notes: captured by anti-His mAb
B11 had a kon in test [2] of 59600 M⁻¹ s⁻¹. Further, in test [1], the “Kit 225 pSTAT3 IC50 (nM)” value was 2 nM.

B12: 1490A07 (designed binder)
chain: MGVSDVPRDLEVVAATPTSLLISWGHYPLHIRYYRITYGETGGNSPVQEFTVPHAKYTATISGLKPGVDYTITVYAVTYYAQENYKEIPISINYRTEIDKPSQHHHHHH
notes: captured by anti-His mAb
B12 showed a kon in test [2] of 163000 M⁻¹ s⁻¹. Further, the “Kit 225 pSTAT3 IC50 (nM)” value in test [1] was found to be 0.6 nM.

B13: 1487D09 (designed binder)
chain: MGVSDVPRDLEVVAATPTSLLISWGHYPMHIRYYRITYGETGGNSPVQEFTVPRSRHTATISGLKPGVDYTITVYAVTYYNEADYSQIPISINYRTEIDKPSQHHHHHH
notes: captured by anti-His mAb
Consider B13, for which, in test [2], binding was put at a Kd of 1.7 nM, the koff was 0.00025 s⁻¹ and the kon turned out to be 150000 M⁻¹ s⁻¹. In test [1], the “Kit 225 pSTAT3 IC50 (nM)” value amounted to 2 nM.

B14: 1487G03 (designed binder)
chain: MGVSDVPRDLEVVAATPTSLLISWGHYPLHVRYYRITYGETGGNSPVQEFTVPAHRYTATISGLKPGVDYTITVYAVTYYNEADYSQIPISINYRTEIDKPSQHHHHHH
notes: captured by anti-His mAb
In test [2], B14 yielded a Kd of 3.1 nM, a koff of 0.000316 s⁻¹ and a kon of 103000 M⁻¹ s⁻¹. Besides, in test [1], the “Kit 225 pSTAT3 IC50 (nM)” value was found to be 3 nM.

B15: 1486B05 (designed binder)
chain: MGVSDVPRDLEVVAATPTSLLISWGHYPMHVRYYRITYGETGGNSPVQEFTVPSRIYTATISGLKPGVDYTITVYAVTYYNEADYSQIPISINYRTEIDKPSQHHHHHH
notes: captured by anti-His mAb
In test [2], B15 registered a Kd of 2.8 nM, an off-rate (koff) of 0.000381 s⁻¹ and a kon of 134000 M⁻¹ s⁻¹. Also, the “Kit 225 pSTAT3 IC50 (nM)” value in test [1] was determined as 4 nM.

B16: 1486C04 (designed binder)
chain: MGVSDVPRDLEVVAATPTSLLISWGHYPMHVRYYRITYGETGGNSPVQEFTVPPHRYTATISGLKPGVDYTITVYAVTYYNEADYSQIPISINYRTEIDKPSQHHHHHH
notes: captured by anti-His mAb
B16: in test [2], the Kd came to 3.4 nM, the koff worked out at 0.000379 s⁻¹ and the kon came to 112000 M⁻¹ s⁻¹. Further, the “Kit 225 pSTAT3 IC50 (nM)” value in test [1] amounted to 31.9 nM.

B17: 1490H08 (designed binder)
chain: MGVSDVPRDLEVVAATPTSLLISWGHYPLHIRYYRITYGETGGNSPVQEFTVPNTSHTATISGLKPGVDYTITVYAVTYYNEADYSQIPISINYRTEIDKPSQHHHHHH
notes: captured by anti-His mAb
On to B17, for which, in test [2], the Kd was found to be 3.5 nM, the koff stood at 0.000587 s⁻¹ and the on-rate constant (kon) stood at 167000 M⁻¹ s⁻¹.

B18: 1491A05 (designed binder)
chain: MGVSDVPRDLEVVAATPTSLLISWGHYPLHVRYYRITYGETGGNSPVQEFTVPSQVYTATISGLKPGVDYTITVYAVTYYAQENYKEIPISINYRTEIDKPSQHHHHHH
notes: captured by anti-His mAb
In test [2], B18 came in with a Kd of 2.1 nM, a koff of 0.000408 s⁻¹ and a kon of 198000 M⁻¹ s⁻¹. Besides, the “Kit 225 pSTAT3 IC50 (nM)” value in test [1] was 0.3 nM.

B19: 1490H06 (designed binder)
chain: MGVSDVPRDLEVVAATPTSLLISWGHYPLHIRYYRITYGETGGNSPVQEFTVPRQKYTATISGLKPGVDYTITVYAVTYYNEADYSQIPISINYRTEIDKPSQHHHHHH
notes: captured by anti-His mAb
In turn, B19 came in with an on-rate constant (kon) in test [2] of 93500 M⁻¹ s⁻¹. Also, in test [1], the “Kit 225 pSTAT3 IC50 (nM)” value was 2.3 nM.

B20: 1490 E02 (designed binder)
chain: MGVSDVPRDLEVVAATPTSLLISWGHYPMHVRYYRITYGETGGNSPVQEFTVPRTQYTATISGLKPGVDYTITVYAVTYYNEADYSQIPISINYRTEIDKPSQHHHHHH
notes: captured by anti-His mAb
In the case of B20, in test [2], the Kd was 4.8 nM, the koff was found to be 0.000465 s⁻¹ and the kon worked out at 97300 M⁻¹ s⁻¹.

B21: 1437G04 (designed binder)
chain: MGVSDVPRDLEVVAATPTSLLISWGHYPLHVRYYRITYGETGGNSPVQEFTVPYYHYTATISGLKPGVDYTITVYAVTYYNEADYSQIPISINYRTEIDKPSQHHHHHH
notes: captured by anti-His mAb
Take B21: in test [2], binding was characterised by a dissociation constant (Kd) of 3.3 nM, the koff stood at 0.000446 s⁻¹ and the kon was 134000 M⁻¹ s⁻¹. Further, the “Kit 225 pSTAT3 IC50 (nM)” value in test [1] was found to be 3.3 nM.

B22: 1486D05 (designed binder)
chain: MGVSDVPRDLEVVAATPTSLLISWGHYPLHVRYYRITYGETGGNSPVQEFTVPHQRYTATISGLKPGVDYTITVYAVTYYNEADYSQIPISINYRTEIDKPSQHHHHHH
notes: captured by anti-His mAb
Regarding B22, in test [2], binding was put at a Kd of 2.9 nM, the koff was 0.000344 s⁻¹ and the on-rate (kon) was 120000 M⁻¹ s⁻¹. Moreover, in test [1], the “Kit 225 pSTAT3 IC50 (nM)” value turned out to be 4 nM.

B23: 1486D04 (designed binder)
chain: MGVSDVPRDLEVVAATPTSLLISWGHYPLHIRYYRITYGETGGNSPVQEFTVPRSTHTATISGLKPGVDYTITVYAVTYYNEADYSQIPISINYRTEIDKPSQHHHHHH
notes: captured by anti-His mAb
As to B23, in test [2], the Kd was determined as 2.3 nM, the koff was 0.000352 s⁻¹ and the kon amounted to 151000 M⁻¹ s⁻¹. The “Kit 225 pSTAT3 IC50 (nM)” value in test [1] came out at 2 nM.

B24: 1437A09 (designed binder)
chain: MGVSDVPRDLEVVAATPTSLLISWGHYPMHVRYYRITYGETGGNSPVQEFTVPSKQHTATISGLKPGVDYTITVYAVTYYNEADYSQIPISINYRTEIDKPSQHHHHHH
notes: captured by anti-His mAb
In test [2], B24 showed an equilibrium dissociation constant (Kd) of 5.7 nM, a koff of 0.00046 s⁻¹ and a kon of 80600 M⁻¹ s⁻¹. Further, in test [1], the “Kit 225 pSTAT3 IC50 (nM)” value is 20.2 nM.
